{"source": "the RNAGym collection of RNA variant scans (doi:10.1021/acssynbio.7b00057)", "parents": {"B1": {"name": "Pistol ribozyme (parent)", "chain": "GGGUCGUUGUUCCAUAAUCGCGUGGAUAUGGCACGCAAGUUUCUACCGGGCACCGUAAAUGUCCGACUGGAGCCGUUCGGGCGGCUAUAAACAGACCUCAGGCCCGAAGCGUGGCGGCACCUGCCGCCGGUGGUAAAAAAGAUCGGAAGAGCACACGUCU"}}}
{"variants_of": "B1", "test": "aptazyme ON/OFF ratio, guanine; higher = stronger switching; co-transcriptional cleavage with and without guanine"}
{"variant": "G9U U10C C12U", "aptazyme ON/OFF ratio": 1.71}
{"variant": "U10C C12U C13G", "aptazyme ON/OFF ratio": 1.1}
{"variant": "U10C C12U C13A", "aptazyme ON/OFF ratio": 1.13}
{"variant": "U10C C12U C13U", "aptazyme ON/OFF ratio": 1.21}
{"variant": "G9U U10C U11A C13U", "aptazyme ON/OFF ratio": 1.48}
{"variant": "G9U U10C U11A C13A", "aptazyme ON/OFF ratio": 1.31}
{"variant": "G9U U10C U11A C13G", "aptazyme ON/OFF ratio": 1.09}
{"variant": "U10C U11C C13U", "aptazyme ON/OFF ratio": 1.03}
{"variant": "U10C U11C C13A", "aptazyme ON/OFF ratio": 1.02}
{"variant": "U10C U11C C13G", "aptazyme ON/OFF ratio": 1.07}
{"variant": "G9U U10A U11C C12U C13U", "aptazyme ON/OFF ratio": 1.5}
{"variant": "G9U U10A U11C C12U C13A", "aptazyme ON/OFF ratio": 1.11}
{"variant": "G9U U10A U11C C12U C13G", "aptazyme ON/OFF ratio": 1.39}
{"variant": "U10A U11G C12A C13U", "aptazyme ON/OFF ratio": 1.46}
{"variant": "U10A U11G C12A C13G", "aptazyme ON/OFF ratio": 1.23}
{"variant": "U10A U11G C12A C13A", "aptazyme ON/OFF ratio": 1.04}
{"variant": "G9U U10G U11C C13A", "aptazyme ON/OFF ratio": 1.26}
{"variant": "G9U U10G U11C C13U", "aptazyme ON/OFF ratio": 1.14}
{"variant": "G9U U10G U11C C13G", "aptazyme ON/OFF ratio": 1.1}
{"variant": "U10C U11A C12A C13A", "aptazyme ON/OFF ratio": 1.37}
{"variant": "U10C U11A C12A C13U", "aptazyme ON/OFF ratio": 1.35}
{"variant": "U10C U11A C12A C13G", "aptazyme ON/OFF ratio": 1.36}
{"variant": "U10C U11G C12G C13U", "aptazyme ON/OFF ratio": 1.11}
{"variant": "U10C U11G C12G C13G", "aptazyme ON/OFF ratio": 1.23}
{"variant": "U10C U11G C12G C13A", "aptazyme ON/OFF ratio": 1.24}
{"variant": "G9U U10G U11A C12G", "aptazyme ON/OFF ratio": 2.23}
{"variant": "G9U U10G U11A C12U", "aptazyme ON/OFF ratio": 1.3}
{"variant": "G9U U10G U11A C12A", "aptazyme ON/OFF ratio": 1.63}
{"variant": "U10C C12A C13A", "aptazyme ON/OFF ratio": 1.23}
{"variant": "U10C C12A C13U", "aptazyme ON/OFF ratio": 1.18}
{"variant": "U10C C12A C13G", "aptazyme ON/OFF ratio": 1.19}
{"variant": "G9U U10C U11A C12G C13G", "aptazyme ON/OFF ratio": 1.43}
{"variant": "G9U U10C U11A C12G C13A", "aptazyme ON/OFF ratio": 1.48}
{"variant": "G9U U10C U11A C12G C13U", "aptazyme ON/OFF ratio": 1.27}
{"variant": "G9U U10G U11G C12U", "aptazyme ON/OFF ratio": 1.33}
{"variant": "G9U U10G U11G C12A", "aptazyme ON/OFF ratio": 1.75}
{"variant": "G9U U10G U11G C12G", "aptazyme ON/OFF ratio": 1.82}
{"variant": "G9U U10C U11C C12A C13U", "aptazyme ON/OFF ratio": 1.2}
{"variant": "G9U U10C U11C C12A C13G", "aptazyme ON/OFF ratio": 1.27}
{"variant": "G9U U10C U11C C12A C13A", "aptazyme ON/OFF ratio": 1.15}
{"variant": "G9U U10G U11G C12G C13A", "aptazyme ON/OFF ratio": 1.25}
{"variant": "G9U U10G U11G C12G C13U", "aptazyme ON/OFF ratio": 1.27}
{"variant": "G9U U10G U11G C12G C13G", "aptazyme ON/OFF ratio": 1.31}
{"variant": "U10C U11G C12A C13U", "aptazyme ON/OFF ratio": 1.3}
{"variant": "U10C U11G C12A C13A", "aptazyme ON/OFF ratio": 1.27}
{"variant": "U10C U11G C12A C13G", "aptazyme ON/OFF ratio": 1.31}
{"variant": "G9U U10A U11G C12U C13A", "aptazyme ON/OFF ratio": 1.21}
{"variant": "G9U U10A U11G C12U C13G", "aptazyme ON/OFF ratio": 1.47}
{"variant": "G9U U10A U11G C12U C13U", "aptazyme ON/OFF ratio": 1.7}
{"variant": "U10C U11C C12U", "aptazyme ON/OFF ratio": 1.08}
{"variant": "U10C U11C C12A", "aptazyme ON/OFF ratio": 1.27}
{"variant": "U10C U11C C12G", "aptazyme ON/OFF ratio": 1.07}
{"variant": "G9U U10G U11G C13A", "aptazyme ON/OFF ratio": 1.25}
{"variant": "G9U U10G U11G C13U", "aptazyme ON/OFF ratio": 1.26}
{"variant": "G9U U10G U11G C13G", "aptazyme ON/OFF ratio": 1.19}
{"variant": "U10C U11C C12A C13U", "aptazyme ON/OFF ratio": 1.08}
{"variant": "U10C U11C C12A C13A", "aptazyme ON/OFF ratio": 1.19}
{"variant": "U10C U11C C12A C13G", "aptazyme ON/OFF ratio": 1.17}
{"variant": "G9U U11G C12U", "aptazyme ON/OFF ratio": 1.99}
{"variant": "G9U U11G C12A", "aptazyme ON/OFF ratio": 2.21}
{"variant": "G9U U11G C12G", "aptazyme ON/OFF ratio": 2.82}
{"variant": "G9U U10A U11A C13G", "aptazyme ON/OFF ratio": 1.17}
{"variant": "G9U U10A U11A C13U", "aptazyme ON/OFF ratio": 1.25}
{"variant": "G9U U10C U11C C12G C13U", "aptazyme ON/OFF ratio": 1.1}
{"variant": "G9U U10C U11C C12G C13A", "aptazyme ON/OFF ratio": 1.08}
{"variant": "G9U U10C U11C C12G C13G", "aptazyme ON/OFF ratio": 1.11}
{"variant": "G9U U10G U11A C13G", "aptazyme ON/OFF ratio": 1.14}
{"variant": "G9U U10G U11A C13A", "aptazyme ON/OFF ratio": 1.13}
{"variant": "G9U U10G U11A C13U", "aptazyme ON/OFF ratio": 1.08}
{"variant": "G9U U11G C12U C13U", "aptazyme ON/OFF ratio": 1.29}
{"variant": "G9U U11G C12U C13A", "aptazyme ON/OFF ratio": 1.43}
{"variant": "G9U U11G C12U C13G", "aptazyme ON/OFF ratio": 1.43}
{"variant": "U10C C12G C13U", "aptazyme ON/OFF ratio": 1.35}
{"variant": "U10C C12G C13A", "aptazyme ON/OFF ratio": 1.24}
{"variant": "U10C C12G C13G", "aptazyme ON/OFF ratio": 1.09}
{"variant": "G9U U10C U11A", "aptazyme ON/OFF ratio": 3.16}
{"variant": "G9U U10C U11C", "aptazyme ON/OFF ratio": 1.63}
{"variant": "G9U U10C U11G", "aptazyme ON/OFF ratio": 3.45}
{"variant": "G9U U11G C12G C13U", "aptazyme ON/OFF ratio": 1.21}
{"variant": "G9U U11G C12G C13A", "aptazyme ON/OFF ratio": 1.49}
{"variant": "G9U U11G C12G C13G", "aptazyme ON/OFF ratio": 1.36}
{"variant": "U10A U11A C13U", "aptazyme ON/OFF ratio": 1.35}
{"variant": "U10A U11A C13G", "aptazyme ON/OFF ratio": 1.12}
